Measured values taken from publication PMC3229523, “Identification of Lactoferricin B Intracellular Targets Using an Escherichia coli Proteome Chip” (PLoS ONE, 2011).
Ends that are not written are not given here. * marks the point of attachment. Biotin = O=C1N[C@H]2[C@H](CS[C@H]2CCCCC(=O)*)N1

Tests used:
Assay in all cases: peptide or protein array; E. coli proteome chip: purified His-tagged proteins printed in duplicate on Fullmoon slides, blocked with 1% BSA; 10 nM N-terminal biotinylated LfcinB with 1% BSA, room temperature, 1 h; detected with DyLight 649-labeled streptavidin, ratio to DyLight 549-labeled anti-His antibody; ProCAT normalisation, local cut-off; triplicate chips
Conditions in all cases: both partners purified
[1] = molecular target: T1, YceC (E. coli K-12, UniProt P0AA39 1-319)
T1 construct: YceC, E. coli K-12
T1 sequence (looked up): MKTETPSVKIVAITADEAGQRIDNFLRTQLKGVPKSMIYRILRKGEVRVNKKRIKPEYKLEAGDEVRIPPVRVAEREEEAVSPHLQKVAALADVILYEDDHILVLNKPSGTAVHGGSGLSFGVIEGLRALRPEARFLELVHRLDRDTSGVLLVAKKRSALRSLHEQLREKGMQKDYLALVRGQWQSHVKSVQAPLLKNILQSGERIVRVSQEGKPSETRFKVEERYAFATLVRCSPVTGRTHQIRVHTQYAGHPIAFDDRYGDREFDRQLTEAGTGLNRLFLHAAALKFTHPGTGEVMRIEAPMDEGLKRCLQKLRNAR

[2] = molecular target: T2, YhiF (E. coli K-12, UniProt P37195 1-176)
T2 construct: YhiF, E. coli K-12
T2 sequence (looked up): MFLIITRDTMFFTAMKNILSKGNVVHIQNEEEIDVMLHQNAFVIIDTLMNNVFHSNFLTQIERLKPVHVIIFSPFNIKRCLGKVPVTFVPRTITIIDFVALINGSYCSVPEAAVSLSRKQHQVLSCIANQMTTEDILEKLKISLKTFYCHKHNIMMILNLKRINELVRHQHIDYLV

[3] = molecular target: MalP (E. coli K-12, UniProt P00490 1-797)
[4] = molecular target: T3, XerB (E. coli K-12, UniProt P68767 1-503)
T3 construct: XerB, E. coli K-12
T3 sequence (looked up): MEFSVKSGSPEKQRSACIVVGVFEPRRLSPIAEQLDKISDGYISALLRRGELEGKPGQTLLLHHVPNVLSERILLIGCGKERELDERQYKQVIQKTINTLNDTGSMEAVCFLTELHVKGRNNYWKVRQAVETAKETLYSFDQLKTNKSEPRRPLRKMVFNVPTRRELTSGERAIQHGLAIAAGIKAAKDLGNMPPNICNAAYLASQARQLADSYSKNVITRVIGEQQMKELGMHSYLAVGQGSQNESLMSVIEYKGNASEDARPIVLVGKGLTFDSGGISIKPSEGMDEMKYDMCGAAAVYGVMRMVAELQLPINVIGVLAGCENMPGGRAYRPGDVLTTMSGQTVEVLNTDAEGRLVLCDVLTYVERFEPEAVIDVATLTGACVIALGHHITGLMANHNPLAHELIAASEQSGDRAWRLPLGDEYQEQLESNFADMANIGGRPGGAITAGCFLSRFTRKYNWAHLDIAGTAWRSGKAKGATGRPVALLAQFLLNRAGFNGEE

[5] = molecular target: T4, RfaS (E. coli K-12, UniProt P27126 1-311)
T4 construct: RfaS, E. coli K-12
T4 sequence (looked up): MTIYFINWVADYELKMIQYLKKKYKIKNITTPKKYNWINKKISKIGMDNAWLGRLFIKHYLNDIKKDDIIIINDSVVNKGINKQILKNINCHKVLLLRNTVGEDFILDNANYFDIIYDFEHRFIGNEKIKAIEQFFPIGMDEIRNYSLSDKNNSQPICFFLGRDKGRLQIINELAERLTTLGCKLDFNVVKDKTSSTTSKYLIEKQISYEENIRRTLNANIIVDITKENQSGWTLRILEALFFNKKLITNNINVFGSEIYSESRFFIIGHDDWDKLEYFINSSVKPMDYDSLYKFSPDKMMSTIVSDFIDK

[6] = molecular target: T5, YhjH (E. coli K-12, UniProt P37646 1-255)
T5 construct: YhjH, E. coli K-12
T5 sequence (looked up): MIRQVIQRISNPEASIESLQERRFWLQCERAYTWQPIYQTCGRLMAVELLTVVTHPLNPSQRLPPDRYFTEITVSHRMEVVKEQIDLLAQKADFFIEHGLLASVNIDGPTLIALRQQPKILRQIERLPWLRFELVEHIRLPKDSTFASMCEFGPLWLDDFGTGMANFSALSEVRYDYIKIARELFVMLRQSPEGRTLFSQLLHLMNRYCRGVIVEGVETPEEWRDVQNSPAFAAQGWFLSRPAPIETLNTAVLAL

Measured: binding result

B1: N-terminal biotinylated Lactoferricin B (peptide, UniProt P24627 36-60, looked up)
peptide: Biotin-FKCRRWQWRMKKLGAPSITCVRRAF
modifications: ends and bridges not checked
notes: lactoferricin B (LfcinB), cationic antimicrobial peptide of 25 amino acids; also called biotinylated LfcinB; biotin-labeled LfcinB; source: bought: Kelowna Inc
binds: all assays above
